Measured values published in patent US20210113690A1 (BERLIN CHEMIE, published 2021).

Experiments:
[1] = molecular target: T1, LY75 (DEC-205) on COLO205 cells (human, UniProt O60449 28-1722); assay: competitive FACS on COLO205 cells; competitor anti-LY75-mAb-MCC-DM1
T1 construct: also called Lymphocyte antigen 75
Procedure: Cells were washed and resuspended in FACS buffer (PBS+2% FBS), neutralized with growth media, and counted. Cells were plated at 50,000 cells per well in a V Bottom 96-well plate. Cells were washed once with FACS buffer (PBS (Fisher, catalog #SH30028-03)+2% FBS). […] Test wells that required single or multiple staining steps were left in FACS buffer as appropriate to ensure the final staining was completed simultaneously for all conditions tested. Two wells were left unstained in FACS buffer as controls.
After the incubation with blocking antibody, cells were washed twice in FACS buffer. […] The cells were washed as above and resuspended in FACS buffer plus 1 μg/ml mouse anti-maytansine antibody and incubated in ice for 45 minutes. The cells were washed as above and resuspended in FACS buffer containing 2 ug/ml goat anti-mouse kappa RPE. The cells were incubated on ice for 45 minutes then washed as above. The cells were resuspended in FACS buffer at 200 μl per well. Mean fluorescence intensity of each sample was determined using a Guava EasyCyte Plus HT Flow Cytometer (96 well plate formats) and the raw data was analyzed using the Guava Cytosoft.

VSLCQKYS = molecular target: T2, VSLCQKYS; assay: peptide microarray, 8mer on the chip, 1 µg/mL LY75_A1, anti-human IgG Alexa 647
T2 construct: LY75 8mer on the microarray
T2 peptide: VSLCQKYS
Procedure: The peptide microarray analysis was performed by LC Sciences, Houston Tex., in brief the method comprised the following steps: —Contiguous 8mer peptides of LY75 protein having […] spanning residues 216 to 1666 of the full length LY75 protein were synthesized and immobilized on a microarray chip. The chip comprised three panels such that the experiment was performed in triplicate. […] The binding assay was performed under the following conditions:—
The microarray comprising the contiguous peptides in triplicate was washed with 1 mL of binding buffer at 4° C. for 20 min. […] The array was again washed with 0.5 mL of washing buffer at 4° C. for 30 min then incubated with 25 ng/mL anti-human IgG Alexa 647 conjugate in binding buffer (pH 7.0) at 4° C. for 1 hr. The array was again washed with 0.5 mL of washing buffer at 4° C. for 30 min.

T1 sequence (O60449 28-1722 limits assumed): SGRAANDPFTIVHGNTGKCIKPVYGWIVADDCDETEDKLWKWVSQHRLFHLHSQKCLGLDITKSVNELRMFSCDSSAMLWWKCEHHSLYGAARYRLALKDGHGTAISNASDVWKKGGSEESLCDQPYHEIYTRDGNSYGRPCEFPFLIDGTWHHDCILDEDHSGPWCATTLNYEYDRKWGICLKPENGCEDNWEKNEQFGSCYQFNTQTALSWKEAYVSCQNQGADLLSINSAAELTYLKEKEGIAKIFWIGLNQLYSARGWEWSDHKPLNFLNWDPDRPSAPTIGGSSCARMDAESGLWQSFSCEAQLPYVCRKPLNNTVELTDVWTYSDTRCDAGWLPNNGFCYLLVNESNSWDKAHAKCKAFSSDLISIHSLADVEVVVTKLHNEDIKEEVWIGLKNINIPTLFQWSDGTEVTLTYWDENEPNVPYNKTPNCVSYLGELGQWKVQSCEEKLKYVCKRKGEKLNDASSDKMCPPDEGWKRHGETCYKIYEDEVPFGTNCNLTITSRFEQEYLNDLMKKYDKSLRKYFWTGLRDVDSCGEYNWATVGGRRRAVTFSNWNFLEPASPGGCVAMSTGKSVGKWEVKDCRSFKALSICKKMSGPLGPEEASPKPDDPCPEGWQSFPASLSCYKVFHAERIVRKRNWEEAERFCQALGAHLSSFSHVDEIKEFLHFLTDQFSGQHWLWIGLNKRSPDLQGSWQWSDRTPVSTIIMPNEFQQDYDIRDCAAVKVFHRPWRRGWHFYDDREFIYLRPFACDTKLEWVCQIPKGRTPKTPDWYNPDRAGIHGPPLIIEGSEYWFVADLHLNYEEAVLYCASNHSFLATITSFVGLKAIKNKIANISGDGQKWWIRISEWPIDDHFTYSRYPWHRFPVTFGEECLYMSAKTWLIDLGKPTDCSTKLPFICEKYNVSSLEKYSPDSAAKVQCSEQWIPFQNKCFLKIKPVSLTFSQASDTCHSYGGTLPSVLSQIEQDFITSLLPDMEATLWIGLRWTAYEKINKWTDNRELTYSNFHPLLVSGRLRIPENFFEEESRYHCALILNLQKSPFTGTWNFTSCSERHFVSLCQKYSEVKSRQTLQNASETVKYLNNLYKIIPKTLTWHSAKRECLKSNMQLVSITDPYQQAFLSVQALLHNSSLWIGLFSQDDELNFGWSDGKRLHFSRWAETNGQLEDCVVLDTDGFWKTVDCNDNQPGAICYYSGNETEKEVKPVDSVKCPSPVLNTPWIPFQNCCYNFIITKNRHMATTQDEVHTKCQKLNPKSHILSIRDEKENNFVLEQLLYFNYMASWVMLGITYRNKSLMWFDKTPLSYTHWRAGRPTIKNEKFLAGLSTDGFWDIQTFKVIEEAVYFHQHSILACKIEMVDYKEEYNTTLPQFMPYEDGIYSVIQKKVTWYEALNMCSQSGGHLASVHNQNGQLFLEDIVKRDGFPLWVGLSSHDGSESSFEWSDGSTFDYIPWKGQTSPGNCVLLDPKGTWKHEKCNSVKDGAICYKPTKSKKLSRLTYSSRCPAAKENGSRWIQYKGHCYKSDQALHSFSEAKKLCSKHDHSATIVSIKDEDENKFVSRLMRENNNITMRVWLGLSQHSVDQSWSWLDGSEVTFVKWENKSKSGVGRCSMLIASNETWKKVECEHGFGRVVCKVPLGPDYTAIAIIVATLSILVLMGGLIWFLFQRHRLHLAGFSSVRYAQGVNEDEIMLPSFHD

B1: LY75_A1 monoclonal antibody (antibody, human IgG1, kappa, V domains shown)
VH: EVQLVESGGGLVKPGGSLRLSCAASGFTYSNAWMSWVRQAPGKGLEWVGRIKSKTDGGTTDYAAPVQGRFTISRDDSKNTLYLQMNSLKTEDTAVYYCTIFGVVSFDYWGQGTLVTVSS
VL: DVQMTQSPSSLSASVGDRVTITCRASQSISDYLSWYQQRPGKAPNLLIYAASNLKTGVPSRFSGSGSGTDFTLTISTLQPEDFATYYCQQSYRSPWTFGQGTKVEIKR
notes: also called LY75A1 antibody; antibody LY75_A1
**Q.** What does the source list for B1?
**A.** binding result [1]: binds; binding result (VSLCQKYS): binds
